Reference: patent US6426205 (MOUNT SINAI HOSPITAL, dated 2002)

T1: Cdc53-Y48W, M49E^MYC6 (Saccharomyces cerevisiae, UniProt Q12018 1-815)
T1 construct: also called mutant Cdc53; pMT1939-1943
T1 sequence: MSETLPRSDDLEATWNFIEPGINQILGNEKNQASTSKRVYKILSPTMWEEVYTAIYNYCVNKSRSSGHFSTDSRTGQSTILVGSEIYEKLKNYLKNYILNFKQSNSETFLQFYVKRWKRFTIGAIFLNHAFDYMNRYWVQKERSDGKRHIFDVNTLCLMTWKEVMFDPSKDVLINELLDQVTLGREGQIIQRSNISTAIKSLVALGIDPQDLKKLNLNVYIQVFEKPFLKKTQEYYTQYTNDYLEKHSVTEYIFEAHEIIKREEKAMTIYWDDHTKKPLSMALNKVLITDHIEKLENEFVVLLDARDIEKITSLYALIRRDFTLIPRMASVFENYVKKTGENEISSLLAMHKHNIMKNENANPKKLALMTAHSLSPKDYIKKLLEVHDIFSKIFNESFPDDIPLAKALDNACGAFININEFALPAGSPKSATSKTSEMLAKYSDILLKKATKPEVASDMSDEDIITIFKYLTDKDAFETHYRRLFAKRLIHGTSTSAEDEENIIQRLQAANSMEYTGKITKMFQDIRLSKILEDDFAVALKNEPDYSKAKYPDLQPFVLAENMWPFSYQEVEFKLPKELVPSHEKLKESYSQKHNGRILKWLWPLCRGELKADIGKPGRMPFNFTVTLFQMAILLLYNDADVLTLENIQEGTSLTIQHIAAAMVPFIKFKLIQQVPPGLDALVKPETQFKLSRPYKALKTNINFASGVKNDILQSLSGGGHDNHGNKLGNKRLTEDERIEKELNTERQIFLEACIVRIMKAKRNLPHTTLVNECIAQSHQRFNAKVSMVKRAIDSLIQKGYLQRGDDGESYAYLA

T2: MYC-tagged Cdc53 (Saccharomyces cerevisiae, UniProt Q12018 1-815)
T2 construct: Expressed from the wild type promoter on a CEN plasmid in yeast and immunoprecipitated with 9E10 anti-MYC; also called Cdc53^M; Cdc53^MYC6
T2 sequence: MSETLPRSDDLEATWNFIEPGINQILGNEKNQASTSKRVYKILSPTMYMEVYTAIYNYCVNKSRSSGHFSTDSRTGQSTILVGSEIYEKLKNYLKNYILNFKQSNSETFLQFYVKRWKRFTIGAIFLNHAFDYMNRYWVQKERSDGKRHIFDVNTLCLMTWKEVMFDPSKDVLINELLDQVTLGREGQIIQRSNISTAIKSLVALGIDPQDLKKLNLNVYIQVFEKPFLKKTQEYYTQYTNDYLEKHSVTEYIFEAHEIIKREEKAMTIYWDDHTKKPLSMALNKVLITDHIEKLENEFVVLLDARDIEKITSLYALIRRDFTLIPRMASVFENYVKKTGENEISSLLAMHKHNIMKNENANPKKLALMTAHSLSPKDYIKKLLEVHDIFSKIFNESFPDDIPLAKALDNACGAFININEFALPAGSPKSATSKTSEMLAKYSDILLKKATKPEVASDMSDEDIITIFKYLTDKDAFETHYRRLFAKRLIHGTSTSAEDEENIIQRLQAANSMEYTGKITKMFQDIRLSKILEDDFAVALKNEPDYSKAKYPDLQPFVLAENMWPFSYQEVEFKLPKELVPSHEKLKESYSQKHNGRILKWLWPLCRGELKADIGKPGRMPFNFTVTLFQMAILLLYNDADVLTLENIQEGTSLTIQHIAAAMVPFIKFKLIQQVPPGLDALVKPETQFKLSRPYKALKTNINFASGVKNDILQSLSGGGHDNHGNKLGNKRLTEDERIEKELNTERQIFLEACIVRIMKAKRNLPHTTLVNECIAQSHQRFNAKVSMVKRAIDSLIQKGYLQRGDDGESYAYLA

T3: Cdc53^Δ9-280 (MYC-tagged) (Saccharomyces cerevisiae, UniProt Q12018 1-815)
T3 construct: Deletion built with natural and engineered restriction sites; also called CDC53^MΔ9-280; pMT1850
T3 sequence: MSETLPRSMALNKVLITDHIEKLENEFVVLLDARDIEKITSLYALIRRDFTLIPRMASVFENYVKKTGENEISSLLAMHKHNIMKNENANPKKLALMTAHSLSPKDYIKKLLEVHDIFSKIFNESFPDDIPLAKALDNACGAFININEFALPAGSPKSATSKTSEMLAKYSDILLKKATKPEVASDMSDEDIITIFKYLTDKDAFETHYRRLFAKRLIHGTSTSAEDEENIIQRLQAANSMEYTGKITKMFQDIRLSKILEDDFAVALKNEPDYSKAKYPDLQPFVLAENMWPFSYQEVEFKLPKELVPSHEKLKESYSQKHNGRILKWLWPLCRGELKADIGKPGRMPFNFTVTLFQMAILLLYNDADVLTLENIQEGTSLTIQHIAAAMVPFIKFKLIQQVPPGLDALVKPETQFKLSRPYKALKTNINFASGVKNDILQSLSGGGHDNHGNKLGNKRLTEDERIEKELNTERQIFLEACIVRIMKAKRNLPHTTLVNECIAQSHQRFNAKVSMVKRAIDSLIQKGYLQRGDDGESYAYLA

T4: Cdc53 with deletion of residues 448-748 (MYC-tagged) (Saccharomyces cerevisiae, UniProt Q12018 1-815)
T4 construct: The limits of the text are used here; also called Cdc53 internal deletion
T4 sequence: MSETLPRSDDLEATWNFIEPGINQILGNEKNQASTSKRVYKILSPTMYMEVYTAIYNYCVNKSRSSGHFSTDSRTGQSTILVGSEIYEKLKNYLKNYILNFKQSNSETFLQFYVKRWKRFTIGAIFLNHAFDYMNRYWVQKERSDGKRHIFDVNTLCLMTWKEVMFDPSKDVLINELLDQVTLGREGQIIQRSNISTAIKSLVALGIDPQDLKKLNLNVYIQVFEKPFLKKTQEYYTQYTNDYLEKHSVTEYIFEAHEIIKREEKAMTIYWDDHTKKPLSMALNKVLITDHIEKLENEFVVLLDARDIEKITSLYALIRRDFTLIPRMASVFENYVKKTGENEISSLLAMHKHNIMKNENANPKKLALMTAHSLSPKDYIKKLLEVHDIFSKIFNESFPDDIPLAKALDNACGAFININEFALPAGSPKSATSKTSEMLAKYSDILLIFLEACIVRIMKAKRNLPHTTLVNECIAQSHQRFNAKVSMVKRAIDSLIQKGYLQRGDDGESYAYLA

B1: Cdc34 (enzyme, budding yeast, UniProt P14682 1-295, looked up)
chain: MSSRKSTASSLLLRQYRELTDPKKAIPSFHIELEDDSNIFTWNIGVMVLNEDSIYHGGFFKAQMRFPEDFPFSPPQFRFTPAIYHPNVYRDGRLCISILHQSGDPMTDEPDAETWSPVQTVESVLISIVSLLEDPNINSPANVDAAVDYRKNPEQYKQRVKMEVERSKQDIPKGFIMPTSESAYISQSKLDEPESNKDMADNFWYDSDLDDDENGSVILQDDDYDDGNNHIPFEDDDVYNYNDNDDDDERIEFEDDDDDDDDSIDNDSVMDRKQPHKAEDESEDVEDVERVSKKI
notes: Endogenous protein in yeast lysates, detected with anti-Cdc34 antibodies; also called endogenous Cdc34

What was measured:
Cdc53-Y48W, M49E^MYC6 = molecular target: T1, Cdc53-Y48W, M49E^MYC6; assay: anti-MYC immunoprecipitation from yeast lysate, western blot
Description: This powder was thawed, spun to remove cellular debris, and cleared by spinning in ultracentrifuge. Protein concentration in the lysate was adjusted to 24 mg/ml in a volume of 1.25 ml lysis buffer+10 mM N-ethyl maleimide, for a final mass of 30 mg protein for each strain. 25 µl of a 50% slurry in lysis buffer of protein-A beads (Pierce) cross-linked with dimethyl suberimidate to the anti-MYC monoclonal antibody 9E10 was added to each lysate, incubated with gentle rocking at 4° C. for several hours, washed several times with lysis buffer, aspirated, resuspended in protein sample buffer, and run on two 10% polyacrylamide gels. One gel was transferred to polyvinylidene fluoride membrane and western blotted with anti-MYC, anti-Cdc34, and anti-Skp1 antibodies (FIG. 12A).

MYC-tagged Cdc53 = molecular target: T2, MYC-tagged Cdc53; assay: anti-MYC immunoprecipitation from yeast lysate, immunoblot
[1] = molecular target: T3, Cdc53^Δ9-280 (MYC-tagged); assay: as above
[2] = molecular target: T4, Cdc53 with deletion of residues 448-748 …; assay: as above
Cdc34 = molecular target: B1; assay: as above
Skp1 = molecular target: T5, Skp1 (budding yeast); assay: as above
T5 construct: Endogenous protein in yeast lysates, detected with anti-Skp1 antibodies; also called endogenous Skp1
T5 sequence (chain, as listed by the source limits assumed): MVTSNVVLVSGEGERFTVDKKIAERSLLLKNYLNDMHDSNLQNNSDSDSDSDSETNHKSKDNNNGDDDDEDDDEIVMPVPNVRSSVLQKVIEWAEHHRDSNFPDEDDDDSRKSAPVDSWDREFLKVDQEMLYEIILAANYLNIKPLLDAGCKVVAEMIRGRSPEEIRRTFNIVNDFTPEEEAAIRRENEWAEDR

Binder	binding result (Cdc53-Y48W, M49E^MYC6)	binding result (MYC-tagged Cdc53)	binding result [1]	binding result [2]	binding result (Cdc34)	binding result (Skp1)
B1	binds	binds	binds	no binding	–	–
Cdc53 with IVRIMK (residues 755-760) mutated to polyalanine (MYC-tagged) (other, not shown: small tags and cut ends, also called CDC53^MIVRIMK; pMT1859) MSETLPRSDDLEATWNFIEPGINQILGNEKNQASTSKRVYKILSPTMYMEVYTAIYNYCVNKSRSSGHFSTDSRTGQSTILVGSEIYEKLKNYLKNYILNFKQSNSETFLQFYVKRWKRFTIGAIFLNHAFDYMNRYWVQKERSDGKRHIFDVNTLCLMTWKEVMFDPSKDVLINELLDQVTLGREGQIIQRSNISTAIKSLVALGIDPQDLKKLNLNVYIQVFEKPFLKKTQEYYTQYTNDYLEKHSVTEYIFEAHEIIKREEKAMTIYWDDHTKKPLSMALNKVLITDHIEKLENEFVVLLDARDIEKITSLYALIRRDFTLIPRMASVFENYVKKTGENEISSLLAMHKHNIMKNENANPKKLALMTAHSLSPKDYIKKLLEVHDIFSKIFNESFPDDIPLAKALDNACGAFININEFALPAGSPKSATSKTSEMLAKYSDILLKKATKPEVASDMSDEDIITIFKYLTDKDAFETHYRRLFAKRLIHGTSTSAEDEENIIQRLQAANSMEYTGKITKMFQDIRLSKILEDDFAVALKNEPDYSKAKYPDLQPFVLAENMWPFSYQEVEFKLPKELVPSHEKLKESYSQKHNGRILKWLWPLCRGELKADIGKPGRMPFNFTVTLFQMAILLLYNDADVLTLENIQEGTSLTIQHIAAAMVPFIKFKLIQQVPPGLDALVKPETQFKLSRPYKALKTNINFASGVKNDILQSLSGGGHDNHGNKLGNKRLTEDERIEKELNTERQIFLEACAAAAAAAKRNLPHTTLVNECIAQSHQRFNAKVSMVKRAIDSLIQKGYLQRGDDGESYAYLA	–	–	–	–	binds	binds
